{"source": "IntAct's records for PubMed 18256688", "parents": {"B1": {"name": "Regulator of nonsense transcripts 1 (Homo sapiens), Q92900 (parent)", "chain": "MSVEAYGPSSQTLTFLDTEEAELLGADTQGSEFEFTDFTLPSQTQTPPGGPGGPGGGGAGGPGGAGAGAAAGQLDAQVGPEGILQNGAVDDSVAKTSQLLAELNFEEDEEDTYYTKDLPIHACSYCGIHDPACVVYCNTSKKWFCNGRGNTSGSHIVNHLVRAKCKEVTLHKDGPLGETVLECYNCGCRNVFLLGFIPAKADSVVVLLCRQPCASQSSLKDINWDSSQWQPLIQDRCFLSWLVKIPSEQEQLRARQITAQQINKLEELWKENPSATLEDLEKPGVDEEPQHVLLRYEDAYQYQNIFGPLVKLEADYDKKLKESQTQDNITVRWDLGLNKKRIAYFTLPKTDSGNEDLVIIWLRDMRLMQGDEICLRYKGDLAPLWKGIGHVIKVPDNYGDEIAIELRSSVGAPVEVTHNFQVDFVWKSTSFDRMQSALKTFAVDETSVSGYIYHKLLGHEVEDVIIKCQLPKRFTAQGLPDLNHSQVYAVKTVLQRPLSLIQGPPGTGKTVTSATIVYHLARQGNGPVLVCAPSNIAVDQLTEKIHQTGLKVVRLCAKSREAIDSPVSFLALHNQIRNMDSMPELQKLQQLKDETGELSSADEKRYRALKRTAERELLMNADVICCTCVGAGDPRLAKMQFRSILIDESTQATEPECMVPVVLGAKQLILVGDHCQLGPVVMCKKAAKAGLSQSLFERLVVLGIRPIRLQVQYRMHPALSAFPSNIFYEGSLQNGVTAADRVKKGFDFQWPQPDKPMFFYVTQGQEEIASSGTSYLNRTEAANVEKITTKLLKAGAKPDQIGIITPYEGQRSYLVQYMQFSGSLHTKLYQEVEIASVDAFQGREKDFIILSCVRANEHQGIGFLNDPRRLNVALTRARYGVIIVGNPKALSKQPLWNHLLNYYKEQKVLVEGPLNNLRESLMQFSKPRKLVNTINPGARFMTTAMYDAREAIIPGSVYDRSSQGRPSSMYFQTHDQIGMISAGPSHVAAMNIPIPFNLVMPPMPPPGYFGQANGPAAGRGTPKGKTGRGGRQKNRFGLPGPSQTNLPNSQASQDVASQPFSQGALTQGYISMSQPSQMSQPGLSQPELSQDSYLGDEFKSQIDVALSQDSTYQGERAYQHGGVTGLSQY"}}, "data": [{"variants_of": "B1", "details": "with rent2_human UPF2, Q9HAU5", "values": [{"variant": "Y184D", "effect of a mutation on the interaction": "disrupting interaction"}, {"variant": "L181V", "effect of a mutation on the interaction": "disrupting interaction"}, {"variant": "C183V", "effect of a mutation on the interaction": "disrupting interaction"}, {"variant": "E182R", "effect of a mutation on the interaction": "disrupting interaction"}]}, {"variants_of": "B1", "details": "with rent2_human UPF2, Q9HAU5", "remark": "another data set of the same source", "values": [{"variant": "V204D", "effect of a mutation on the interaction": "disrupting interaction"}, {"variant": "V205I", "effect of a mutation on the interaction": "disrupting interaction"}]}, {"variants_of": "B1", "details": "with rent2_human UPF2, Q9HAU5", "remark": "another data set of the same source", "values": [{"variant": "C126S", "effect of a mutation on the interaction": "disrupting interaction"}]}]}
